The supplement of paper PMC10065799, “High-throughput profiling of sequence recognition by tyrosine kinases and SH2 domains using bacterial peptide display” (eLife, 2023)

Key:
MERTK = MERTK (UniProt Q12866); test: phosphorylation enrichment, bacterial display (enrichment ratio); higher = better substrate or ligand; peptides without Tyr show the background
Jak2 = Jak2 (UniProt O60674); test: as above
AncSZ = test: as above
Fer (mouse) = test: as above
EPHB1 = EPHB1 (UniProt P54762); test: as above
EPHB2 = EPHB2 (UniProt P29323); test: as above
FGFR3 = FGFR3 (UniProt P22607); test: as above
Hck = Hck (UniProt P08631); test: as above
FGFR1 = FGFR1 (UniProt P11362); test: as above
Fes = Fes (UniProt P07332); test: as above
Fyn = Fyn (UniProt P06241); test: as above
c-Abl (mouse) = test: as above
c-Src = test: as above
c-Src SH2 = test: SH2 binding enrichment of the phosphorylated peptide, bacterial display (enrichment ratio); higher = better substrate or ligand; peptides without Tyr show the background
SHP2-C SH2 = test: as above
Grb2 SH2 = Grb2 SH2 (UniProt P62993); test: as above
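Throughout, for SH2 binding enrichment of the phosphorylated peptide, bacterial display: peptide library displayed on the E. coli surface as eCPX fusions, selected cells deep-sequenced, score is each peptide's frequency after selection divided by its frequency in the input.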
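Throughout, for phosphorylation enrichment, bacterial display: 11-residue human phosphosite peptides and single-mutation variants displayed on the E. coli surface, counted by deep sequencing, each peptide's frequency after selection divided by its frequency in the unselected input library; frequency after pTyr selection over input frequency; kinase dosed for 20-30% of maximal phosphorylation in three min.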

Fyn, sequence (P06241 whole entry, looked up): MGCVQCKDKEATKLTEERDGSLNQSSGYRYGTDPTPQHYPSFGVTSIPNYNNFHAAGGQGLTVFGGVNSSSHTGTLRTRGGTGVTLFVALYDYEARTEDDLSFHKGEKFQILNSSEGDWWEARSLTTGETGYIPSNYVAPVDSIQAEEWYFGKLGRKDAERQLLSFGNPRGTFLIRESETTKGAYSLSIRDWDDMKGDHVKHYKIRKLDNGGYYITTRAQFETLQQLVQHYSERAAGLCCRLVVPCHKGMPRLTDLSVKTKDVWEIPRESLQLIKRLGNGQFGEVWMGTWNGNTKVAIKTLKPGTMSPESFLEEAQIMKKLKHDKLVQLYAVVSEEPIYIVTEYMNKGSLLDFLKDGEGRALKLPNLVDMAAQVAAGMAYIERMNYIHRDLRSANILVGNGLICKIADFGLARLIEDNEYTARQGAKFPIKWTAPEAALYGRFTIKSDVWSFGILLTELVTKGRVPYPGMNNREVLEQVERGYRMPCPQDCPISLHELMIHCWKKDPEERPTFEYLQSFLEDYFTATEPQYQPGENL
Hck, sequence (P08631 whole entry, looked up): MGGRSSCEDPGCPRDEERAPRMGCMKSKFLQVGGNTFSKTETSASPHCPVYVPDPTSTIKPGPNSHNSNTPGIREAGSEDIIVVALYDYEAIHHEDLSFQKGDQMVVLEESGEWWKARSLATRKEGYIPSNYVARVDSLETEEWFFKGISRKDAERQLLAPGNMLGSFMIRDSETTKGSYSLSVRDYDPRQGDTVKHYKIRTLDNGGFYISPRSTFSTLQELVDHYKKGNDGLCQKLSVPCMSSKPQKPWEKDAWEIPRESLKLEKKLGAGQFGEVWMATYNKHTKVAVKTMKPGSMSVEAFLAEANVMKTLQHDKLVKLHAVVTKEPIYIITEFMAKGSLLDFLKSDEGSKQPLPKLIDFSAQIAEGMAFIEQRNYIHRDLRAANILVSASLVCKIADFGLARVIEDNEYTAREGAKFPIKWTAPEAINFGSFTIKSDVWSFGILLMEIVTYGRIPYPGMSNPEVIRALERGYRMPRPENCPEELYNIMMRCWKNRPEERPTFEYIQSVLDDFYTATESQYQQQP
EPHB2, sequence (P29323 whole entry, looked up): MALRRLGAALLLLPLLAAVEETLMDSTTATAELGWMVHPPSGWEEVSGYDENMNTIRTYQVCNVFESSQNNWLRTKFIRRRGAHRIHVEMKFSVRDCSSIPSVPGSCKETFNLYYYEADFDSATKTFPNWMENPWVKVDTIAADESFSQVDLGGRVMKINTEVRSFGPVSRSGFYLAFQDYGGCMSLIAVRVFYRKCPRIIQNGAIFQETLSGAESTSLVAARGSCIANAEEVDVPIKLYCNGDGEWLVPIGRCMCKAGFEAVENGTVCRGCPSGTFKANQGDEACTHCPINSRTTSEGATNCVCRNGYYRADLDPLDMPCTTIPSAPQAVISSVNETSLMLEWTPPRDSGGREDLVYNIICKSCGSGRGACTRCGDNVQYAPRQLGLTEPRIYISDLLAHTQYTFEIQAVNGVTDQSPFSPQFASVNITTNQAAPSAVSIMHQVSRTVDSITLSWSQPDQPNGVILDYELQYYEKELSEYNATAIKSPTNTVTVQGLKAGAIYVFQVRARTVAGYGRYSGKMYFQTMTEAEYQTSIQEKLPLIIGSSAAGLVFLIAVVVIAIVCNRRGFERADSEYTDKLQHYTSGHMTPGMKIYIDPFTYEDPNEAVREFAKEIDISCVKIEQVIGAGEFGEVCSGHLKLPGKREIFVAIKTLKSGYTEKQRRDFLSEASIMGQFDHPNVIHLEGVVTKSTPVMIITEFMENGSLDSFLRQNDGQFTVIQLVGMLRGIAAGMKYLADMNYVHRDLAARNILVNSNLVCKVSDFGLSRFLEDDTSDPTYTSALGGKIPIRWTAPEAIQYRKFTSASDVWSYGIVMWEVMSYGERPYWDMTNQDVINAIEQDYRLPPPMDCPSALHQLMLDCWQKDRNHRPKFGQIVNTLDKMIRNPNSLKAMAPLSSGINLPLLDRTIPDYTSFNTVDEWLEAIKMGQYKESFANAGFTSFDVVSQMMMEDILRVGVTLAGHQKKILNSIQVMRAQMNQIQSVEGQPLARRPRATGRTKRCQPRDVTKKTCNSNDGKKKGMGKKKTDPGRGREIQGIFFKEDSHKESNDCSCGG
Jak2, sequence (O60674 whole entry, looked up): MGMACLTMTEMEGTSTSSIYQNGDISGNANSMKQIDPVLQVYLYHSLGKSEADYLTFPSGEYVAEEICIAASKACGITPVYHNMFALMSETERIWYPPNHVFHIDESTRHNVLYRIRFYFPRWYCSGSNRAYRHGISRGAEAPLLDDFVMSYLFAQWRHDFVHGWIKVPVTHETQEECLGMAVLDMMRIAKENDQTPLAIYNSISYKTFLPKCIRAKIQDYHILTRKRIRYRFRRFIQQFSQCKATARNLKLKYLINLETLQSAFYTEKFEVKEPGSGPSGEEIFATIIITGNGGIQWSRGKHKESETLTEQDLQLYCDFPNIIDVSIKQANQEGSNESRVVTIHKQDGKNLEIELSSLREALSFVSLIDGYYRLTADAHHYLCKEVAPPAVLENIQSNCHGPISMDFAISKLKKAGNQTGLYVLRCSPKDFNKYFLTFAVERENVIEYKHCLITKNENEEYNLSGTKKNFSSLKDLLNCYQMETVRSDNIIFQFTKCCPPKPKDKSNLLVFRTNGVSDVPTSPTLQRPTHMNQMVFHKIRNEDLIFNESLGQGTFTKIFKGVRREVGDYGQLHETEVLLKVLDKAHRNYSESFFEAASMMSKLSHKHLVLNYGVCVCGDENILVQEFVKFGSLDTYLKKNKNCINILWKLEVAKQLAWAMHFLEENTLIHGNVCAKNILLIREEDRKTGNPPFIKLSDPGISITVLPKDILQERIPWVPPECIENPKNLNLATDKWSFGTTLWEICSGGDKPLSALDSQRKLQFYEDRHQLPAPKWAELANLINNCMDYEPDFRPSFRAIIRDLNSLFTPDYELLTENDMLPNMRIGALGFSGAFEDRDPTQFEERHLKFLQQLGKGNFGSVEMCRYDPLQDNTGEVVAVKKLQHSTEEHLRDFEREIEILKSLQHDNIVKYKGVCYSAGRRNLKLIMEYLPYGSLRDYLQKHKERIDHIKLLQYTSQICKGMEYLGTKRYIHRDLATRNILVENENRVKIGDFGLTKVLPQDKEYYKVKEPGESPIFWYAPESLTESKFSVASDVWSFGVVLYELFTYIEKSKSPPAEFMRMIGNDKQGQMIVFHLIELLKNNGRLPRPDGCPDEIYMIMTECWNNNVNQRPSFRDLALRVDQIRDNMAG
FGFR1, sequence (P11362 whole entry, looked up): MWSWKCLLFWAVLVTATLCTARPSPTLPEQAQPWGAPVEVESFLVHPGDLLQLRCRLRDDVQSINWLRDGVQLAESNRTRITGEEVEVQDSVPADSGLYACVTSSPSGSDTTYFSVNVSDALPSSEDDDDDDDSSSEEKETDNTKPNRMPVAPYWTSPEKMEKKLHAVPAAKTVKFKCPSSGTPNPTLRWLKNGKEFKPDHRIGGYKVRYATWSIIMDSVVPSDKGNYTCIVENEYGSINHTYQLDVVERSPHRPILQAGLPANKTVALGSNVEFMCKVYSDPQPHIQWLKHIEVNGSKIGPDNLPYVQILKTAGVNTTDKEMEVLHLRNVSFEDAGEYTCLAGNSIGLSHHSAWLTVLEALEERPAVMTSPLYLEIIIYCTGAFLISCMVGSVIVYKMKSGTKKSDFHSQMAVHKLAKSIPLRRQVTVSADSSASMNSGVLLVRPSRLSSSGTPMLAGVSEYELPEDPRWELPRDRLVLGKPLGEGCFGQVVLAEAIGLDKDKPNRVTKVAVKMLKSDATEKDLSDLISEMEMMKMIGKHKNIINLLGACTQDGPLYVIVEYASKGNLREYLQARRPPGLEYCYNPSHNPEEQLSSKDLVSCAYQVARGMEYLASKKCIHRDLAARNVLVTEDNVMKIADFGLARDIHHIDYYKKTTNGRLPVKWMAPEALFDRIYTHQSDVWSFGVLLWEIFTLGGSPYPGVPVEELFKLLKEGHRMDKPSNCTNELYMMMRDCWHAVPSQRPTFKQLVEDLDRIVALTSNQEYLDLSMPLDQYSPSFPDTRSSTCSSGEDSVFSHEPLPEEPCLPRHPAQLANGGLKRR
Fes, sequence (P07332 whole entry, looked up): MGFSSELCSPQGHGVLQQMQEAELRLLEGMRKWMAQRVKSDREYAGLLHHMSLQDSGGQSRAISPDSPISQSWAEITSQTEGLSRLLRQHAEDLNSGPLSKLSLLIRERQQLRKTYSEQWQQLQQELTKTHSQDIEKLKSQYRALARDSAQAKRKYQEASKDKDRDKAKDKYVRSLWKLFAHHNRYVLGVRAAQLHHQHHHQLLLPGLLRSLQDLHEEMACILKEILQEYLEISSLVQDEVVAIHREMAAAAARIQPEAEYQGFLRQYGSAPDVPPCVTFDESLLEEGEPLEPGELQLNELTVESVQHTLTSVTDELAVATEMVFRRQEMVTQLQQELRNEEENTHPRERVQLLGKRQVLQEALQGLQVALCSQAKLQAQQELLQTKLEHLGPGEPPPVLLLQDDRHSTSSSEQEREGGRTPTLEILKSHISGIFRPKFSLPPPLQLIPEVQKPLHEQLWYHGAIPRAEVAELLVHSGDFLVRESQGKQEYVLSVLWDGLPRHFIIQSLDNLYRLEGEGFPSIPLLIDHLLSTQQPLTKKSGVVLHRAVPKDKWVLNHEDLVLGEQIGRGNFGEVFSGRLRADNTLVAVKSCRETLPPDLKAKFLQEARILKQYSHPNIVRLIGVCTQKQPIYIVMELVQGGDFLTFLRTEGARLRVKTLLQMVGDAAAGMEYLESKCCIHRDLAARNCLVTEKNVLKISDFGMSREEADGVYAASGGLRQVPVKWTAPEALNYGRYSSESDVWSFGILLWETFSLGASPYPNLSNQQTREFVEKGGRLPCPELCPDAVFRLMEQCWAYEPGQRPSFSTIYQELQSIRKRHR

Sequence	SH2 binding enrichment (c-Src SH2)	SH2 binding enrichment (SHP2-C SH2)	SH2 binding enrichment (Grb2 SH2)	phosphorylation enrichment (MERTK)	phosphorylation enrichment (Jak2)	phosphorylation enrichment (AncSZ)	phosphorylation enrichment (Fer (mouse))	phosphorylation enrichment (EPHB1)	phosphorylation enrichment (EPHB2)	phosphorylation enrichment (FGFR3)	phosphorylation enrichment (Hck)	phosphorylation enrichment (FGFR1)	phosphorylation enrichment (Fes)	phosphorylation enrichment (Fyn)	phosphorylation enrichment (c-Abl (mouse))	phosphorylation enrichment (c-Src)
QTLTDYDTRFF [CSNK2A3_Y131_I133T_YF]	0.708	0.852	0.862	0.473	0.832	0.909	0.684	0.506	0.823	0.912	1.06	0.666	1.09	0.702	0.725	0.573
RASSVFTRSTG [CCR5_Y339_Y339F]	0.455	0.778	0.644	0.624	0.766	0.73	0.736	0.619	0.468	0.797	0.579	0.589	0.732	0.868	0.861	0.821
RFMVGYEMLAQ [GALT_Y339_K334R]	2.32	0.617	0.836	0.635	1.4	1.38	0.677	0.939	0.811	0.873	0.751	0.875	1.41	0.719	0.849	0.83
RGRSTCFWPRP [GAGE12J_Y9_Y9C_YF]	0.571	0.353	0.595	0.796	1.19	0.71	0.786	0.782	0.733	0.928	0.635	1.05	0.772	0.693	1.04	0.867
RGRSTYFWPRP [GAGE12J_Y9_YF]	0.489	0.704	0.456	1.3	0.838	1.15	1.11	0.875	0.652	1.06	0.636	0.93	1.02	0.641	1.17	0.999
RHLLRYLSWTV [CLCNKB_Y93_S88R]	1.02	1.05	1.55	0.379	0.982	0.883	0.594	0.712	0.591	0.521	0.614	0.532	1.29	0.507	0.969	0.516
RIGRKCKKVRF [F8_Y442_Y442C]	0.433	0.428	0.638	0.549	0.654	0.608	0.363	0.567	0.556	0.572	0.52	1.67	0.595	0.55	0.524	0.794
RKLASYQSCLL [DHX37_Y1080_R1081Q]	0.517	0.646	0.784	0.539	2.02	1.01	0.555	0.592	0.799	1.22	0.665	1.19	1.11	0.901	0.872	0.463
RLAKTYETTLK [ALB_Y377_E382K]	0.557	0.556	0.809	0.695	0.607	0.768	0.406	1	0.681	0.463	0.459	0.553	0.848	0.82	1.65	0.817

Second part, led by results:

SH2 binding enrichment (c-Src SH2)	SH2 binding enrichment (SHP2-C SH2)	SH2 binding enrichment (Grb2 SH2)	Sequence	phosphorylation enrichment (MERTK)	phosphorylation enrichment (Jak2)	phosphorylation enrichment (AncSZ)	phosphorylation enrichment (Fer (mouse))	phosphorylation enrichment (EPHB1)	phosphorylation enrichment (EPHB2)	phosphorylation enrichment (FGFR3)	phosphorylation enrichment (Hck)	phosphorylation enrichment (FGFR1)	phosphorylation enrichment (Fes)	phosphorylation enrichment (Fyn)	phosphorylation enrichment (c-Abl (mouse))	phosphorylation enrichment (c-Src)
0.314	0.406	0.567	RDWSLYFKIIE [KRT18_Y129_H128L]	0.327	1.09	1.66	0.464	0.799	0.576	0.841	0.356	0.395	1.56	0.447	0.4	0.354
0.338	0.615	0.796	RGFRVCFTPDS [PTPRF_Y450_Y450C_YF]	0.551	1.97	1.09	0.635	0.64	0.462	0.812	1.65	0.337	1.73	0.521	1.32	0.549
1.2	0.908	1.16	RGFRVYFTPDS [PTPRF_Y450_YF]	0.538	1.76	1.31	0.469	0.583	0.749	0.877	0.542	0.545	1.71	0.4	1.2	0.714
0.59	0.469	0.681	RGKDNYETSQL [SPP1_Y225_S224N]	0.689	0.74	0.857	0.541	0.662	0.628	0.634	0.56	0.565	0.773	0.549	0.62	0.681
0.479	0.629	1.09	RHNEIYEIKVD [LGR5_Y387]	0.616	1.86	1.12	0.915	0.312	0.671	1.02	6.57	0.724	1.18	8.54	0.768	8.99
1.11	1.53	1.96	RIILLYIFLKN [STXBP1_Y411]	0.581	0.994	0.83	0.45	0.298	0.332	0.489	0.42	0.466	1.01	0.212	0.827	0.62
0.749	0.821	0.996	RKETFYTLSCR [GUCY2C_Y681]	6.83	1.03	1.32	1	1.17	1.27	1.39	1.03	1.49	2.07	2.44	1.29	2.02
